Results reported in patent US20060148057A1, “Thioredoxin mutants and uses thereof” (priority 2002, published 2006).
Positions count from the first letter of the chain named. Names and notes keep the numbering of the source.

B1: thioredoxin (protein)
chain: MVKQIESKTAFQEALDAAGDKLVVVDFSATWCGPCKMIKPFFHSLSEKYSNVIFLEVDVDDCQDVASECEVKCMPTFQFFKKGQKVGEFSGANKEKLEATINELV
modifications: Flag tag or GST fusion
notes: Flag-tagged or GST fusion
B2: Trx-C35S: C35S single mutant of Trx at the catalytic site, SEQ ID NO:3 (protein)
chain: B1 chain with C35S
B3: Trx-C32S: C32S single mutant of Trx at the catalytic site, SEQ ID NO:2 (protein)
chain: B1 chain with C32S

Assays:
ASK1 = test: Association of Trx with ASK1 in vivo in BAEC (co-immunoprecipitation); type: binding, Bovine; conditions: for association of Flag-Trx with HA-ASK1 after TNF treatment: TNF 10 ng/ml for 15 min; for binding of Flag-Trx to HA-ASK1: resting EC, co-immunoprecipitation
Description: Immunoprecipitation and immunoblotting EC after various treatments were washed twice with cold PBS and lysed in 1.5 ml of cold lysis buffer (50 mM Tris-HC, pH 7.6, 150 mM NaCl, 0.1% Triton X-100, 0.75% Brij 96, 10 μg/ml aprotinin, 10 μg/ml leupeptin, 2 mM PMSF, 1 mM EDTA) for 20 min on ice. Protein concentrations were determined with a Bio-Rad kit. For immunoprecipitation to analyze protein interaction in vivo, 400 μg of cell lysate supematant were incubated with 5 μg of the first protein-specific antiserum (e.g. anti-Trx from Medical & Biological Laboratory) for 2 h with 50 μl of GammaBind plus Sepharose. Immune complexes were collected after each immunoprecipitation by centrifugation at 14,000× g for 10 min followed by 4 washes with lysis buffer. The immune complexes were subjected to Western blot with the second protein (e.g., ASK1)-specific antibody (Santa Cruz Biotech, Santa Cruz, Calif.). The chemiluminescence was detected using an ECL kit according to the instructions of the manufacturer (Amersham Life Science, Arlington Heights, Ill.). For Flag-tagged and HA-tagged proteins, anti-Flag M2 antibody (Sigma) and anti-HA antibody (Roche Diagnostics) were used, respectively.
TNF dissociates wild type Trx but not Trx-C32S or Trx-C35Sfroin ASK1 in vivo. Trx-C32S and Trx-C35S were examiner to determine whether they constitutively bind to ASK1 in vivo. Regulation of ASK1 by Trx was first examined to determine if such regulation is ROS-dependent in EC. BAEC were either untreated or treated with N-acetyl-cysteine (Nac, 1 mM) or vehicle for 60 min prior to TNF-α (10 ng/ml) stimulation for 15 min. TNF-induced ASK1 activation was measured by an in vitro kinase assay using GST-MKK4 (JNKK1) fusion protein as a substrate. TNF activated ASK1 in EC (FIG. 5A). […] Association of ASK1 with Trx was easily detected in untreated EC cells (FIG. 5B, Ctrl). […] In contrast, Nac pretreatment prevented TNF-induced dissociation of ASK1 from Trx. Similar results were obtained in human EC (HUVEC).
To examine association of Trx mutants with ASK1 in vivo, the Flag-tagged Trx construct (WT, CS, C32S or C35S) was co-transfected with HA-ASK1 into BAEC and the interaction of these Trx proteins with ASK1 were examined by co-immunoprecipitation assay. As expected, Trx-WT, Trx-C32S and Trx-Trx-C35S (but not Trx-CS) bound to ASK1 in resting EC (FIG. 5C).

BAEC = test: GFP killing assay, TNF+CHX-induced EC death; type: cell-based, Bovine; conditions: TNF 10 ng/ml plus CHX 10 μg/ml for 24 h; vector control 25% survival
Description: Trx inhibits ASK1-induced JNK activation and caspase 3 activity. BAEC were co-transfected with ASK1 and Trx constructs in 1:1 ratio as indicated: control vector alone (Ctrl), ASK1 with VC, Trx-WT, Trx-CS, Trx-C32S or Trx-C35S. 24 h post-transfection, cell lysates were used to examine JNK and caspase 3 activity. […] JNK activity was measured by an in vitro kinase assay GST-c-Jun as a substrate. Trx expression was determined by Western blot anti-Flag. […] Caspase 3 activity was measured by Sigma's Caspase 3 Fluorometric Assay Kit in the absence or presence of caspase 3 inhibitor Ac-DEVD-CHO. Assay was performed as duplicates. Caspase 3 activities were normalized with the Ctrl group (as zero). Data are presented from mean of two independent experiments. […] 48 h after transfection, GFP-positive cells were counted as survival cells. […] GFP-positive cells were counted as survival cells. […]
Quantitation of cell killing: Cell killing assay was performed as described previously with a modification (Slowik M R et al. Evidence that tumor necrosis factor triggers apoptosis in human endothelial cells by interleukin-1-converting enzyme-like protease- dependent and -independent pathways. Lab Invest. 77:257-67 (1997)). […] GFP-positive cells were visualized under a fluorescence microscope and counted as number of survival cells. […]

Sequence of ASK1 (Q99683 whole entry): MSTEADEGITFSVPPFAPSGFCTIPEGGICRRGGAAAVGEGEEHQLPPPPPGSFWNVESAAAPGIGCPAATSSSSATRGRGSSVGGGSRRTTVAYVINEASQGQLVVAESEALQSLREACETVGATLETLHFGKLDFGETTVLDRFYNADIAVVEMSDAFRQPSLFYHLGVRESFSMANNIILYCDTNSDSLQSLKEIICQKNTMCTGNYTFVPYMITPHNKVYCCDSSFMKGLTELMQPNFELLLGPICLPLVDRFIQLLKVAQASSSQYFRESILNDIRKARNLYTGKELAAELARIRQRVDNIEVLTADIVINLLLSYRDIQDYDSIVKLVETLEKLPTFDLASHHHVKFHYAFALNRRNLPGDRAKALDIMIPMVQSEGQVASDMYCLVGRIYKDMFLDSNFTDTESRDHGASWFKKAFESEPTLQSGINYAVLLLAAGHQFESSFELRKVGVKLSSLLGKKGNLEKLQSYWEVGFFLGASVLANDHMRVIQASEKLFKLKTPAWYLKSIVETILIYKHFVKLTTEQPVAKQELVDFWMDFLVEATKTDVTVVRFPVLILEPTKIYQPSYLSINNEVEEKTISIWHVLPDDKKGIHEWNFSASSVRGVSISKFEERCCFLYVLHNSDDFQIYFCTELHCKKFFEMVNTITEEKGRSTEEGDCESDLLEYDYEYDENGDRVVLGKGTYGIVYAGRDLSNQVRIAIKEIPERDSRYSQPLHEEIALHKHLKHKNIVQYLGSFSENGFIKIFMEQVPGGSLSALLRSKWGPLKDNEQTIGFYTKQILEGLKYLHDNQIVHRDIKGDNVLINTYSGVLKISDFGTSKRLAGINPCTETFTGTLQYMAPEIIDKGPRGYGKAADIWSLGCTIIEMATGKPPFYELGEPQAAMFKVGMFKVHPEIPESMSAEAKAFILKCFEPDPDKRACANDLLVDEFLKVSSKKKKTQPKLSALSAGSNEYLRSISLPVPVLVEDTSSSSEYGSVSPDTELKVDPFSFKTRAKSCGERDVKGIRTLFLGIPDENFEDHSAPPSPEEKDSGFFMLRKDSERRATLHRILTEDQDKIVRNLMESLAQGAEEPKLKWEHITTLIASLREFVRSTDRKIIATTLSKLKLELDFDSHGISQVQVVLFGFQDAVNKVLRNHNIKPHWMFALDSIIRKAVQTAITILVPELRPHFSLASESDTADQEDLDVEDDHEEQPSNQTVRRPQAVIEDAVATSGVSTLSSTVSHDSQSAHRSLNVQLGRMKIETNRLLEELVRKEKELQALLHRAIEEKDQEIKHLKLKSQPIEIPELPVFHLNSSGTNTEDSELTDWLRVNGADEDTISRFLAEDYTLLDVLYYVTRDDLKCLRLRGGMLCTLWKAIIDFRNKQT

Molecule | association of Flag-Trx with HA-ASK1 after TNF treatment (ASK1) | binding of Flag-Trx to HA-ASK1 (ASK1) | survival after TNF+CHX (GFP-positive cells, Ctrl as 100%) (BAEC) [%]
B1 | completely dissociated | bound to ASK1 | –
B2 | not reduced | bound to ASK1 | 100±12
B3 | not reduced | bound to ASK1 | –
